Experimental data reported in patent publication US20070196860.

Legend:
[1] = test system: SEQ ID NO. 48, Ac-EEEEYIQdPSxG-NH2
[2] = test system: SEQ ID NO. 30, Ac-ALKLSRYPSFdPSxG-NH2
[3] = test system: SEQ ID NO. 42, Ac-SxPGIYAAPFAKKK-NH2
[4] = test system: SEQ ID NO. 27, Ac-SxPGSFRRR-NH2
[5] = test system: SEQ ID NO. 41, Ac-SxPGSDDDDD-NH2

Chain of MK2 enzyme (P49137 whole entry): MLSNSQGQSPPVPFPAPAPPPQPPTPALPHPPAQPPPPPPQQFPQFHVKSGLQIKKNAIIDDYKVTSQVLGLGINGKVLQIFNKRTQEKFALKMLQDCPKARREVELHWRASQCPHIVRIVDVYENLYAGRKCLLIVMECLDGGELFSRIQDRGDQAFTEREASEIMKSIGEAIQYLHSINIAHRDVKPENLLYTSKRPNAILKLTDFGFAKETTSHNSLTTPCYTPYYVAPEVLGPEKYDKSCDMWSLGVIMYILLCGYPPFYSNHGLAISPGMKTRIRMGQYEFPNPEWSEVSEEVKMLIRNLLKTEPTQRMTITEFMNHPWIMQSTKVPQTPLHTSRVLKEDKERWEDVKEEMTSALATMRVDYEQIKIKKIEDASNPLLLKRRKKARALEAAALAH

c-Src
reaction rate, c-Src transfected CEF lysate [1]: The c-Src transfected CEF sample showed a reaction rate of 50 RFU/sec | reaction rate, mock transfected (control) CEF lysate [1]: the control treated sample had a markedly reduced rate of 0.048 RFU/sec

RSK
reaction rate, PMA-treated HeLa lysate [2]: The PMA-treated sample showed a reaction rate of 3.17 RFU/sec | reaction rate, control treated HeLa lysate [2]: the control treated sample had a markedly reduced rate of 0.64 RFU/sec

p70-S6K
reaction rate, control treated MCF-7 lysate [3]: the control treated sample had a markedly reduced rate of 0.12 RFU/sec | reaction rate, insulin-treated MCF-7 lysate [3]: The insulin-treated sample showed a reaction rate of 1.13 RFU/sec

MK2 enzyme
fluorescence signal at plateau; cascade reaction started by B-Raf captured from NGF-treated PC12 lysate [4]: fluorescence signals that reached a plateau at 150 minutes of incubation (3200 RFU) | fluorescence signal at plateau; cascade reaction started by ERK1/2 captured from PDGF-treated NIH3T3 lysate [4]: a fluorescence signal of 3000 RFU that reached a plateau at 335 minutes of incubation | fluorescence signal at plateau; cascade reaction started by MEK1 captured from PDGF-treated NIH3T3 lysate [4]: fluorescence signal of 3650 RFU that reached a plateau at 250 minutes of incubation | fluorescence signal at plateau; cascade reaction started by p38 MAPK captured from anisomycin treated RAW lysate [4]: fluorescence signal of 3350 RFU that reached a plateau at 60 minutes of incubation | fluorescence signal; cascade reaction started by ERK1/2 captured from control NIH3T3 lysate [4]: the control group produced fluorescence signal of 845 RFU | fluorescence signal; cascade reaction started by MEK1 captured from control NIH3T3 lysate [4]: the control group produced fluorescence signal of 1050 RFU | fluorescence signal; cascade reaction started by p38 MAPK captured from control RAW lysate [4]: the control group produced fluorescence signal of 1250 RFU

Erk1/2 kinase
reaction rate, PDGF-treated NIH3T3 lysate [5]: The PDGF-treated sample showed a reaction rate of 1.55 RFU/sec | reaction rate, control treated NIH3T3 lysate [5]: the control treated sample had a markedly reduced rate of 0.27 RFU/sec
